Data: PMC8196010 (Communications Biology, 2021)
No end group written: not given here.

What was measured:
[1] = biological target: recombinant human PALS1 PDZ (residues 255-336) (Homo sapiens, UniProt Q8N3R9); assay: biochemical; type: binding
[2] = biological target: SARS-CoV-1 E protein C-terminal PBM (Severe acute respiratory syndrome coronavirus) (UniProt P59637); settings: cited from earlier work
[3] = biological target: SARS-CoV-2 E protein C-terminal PBM (Severe acute respiratory syndrome coronavirus 2) (UniProt P0DTC4); settings: cited from earlier work
[4] = biological target: SARS-CoV-1 E protein PBM (Severe acute respiratory syndrome coronavirus); assay: ITC
[5] = biological target: SARS-CoV-2 E protein PBM (Severe acute respiratory syndrome coronavirus 2); assay: ITC

EGVPDLLV [SARS-CoV-2 PBM]
Kd [1]: 22.8 ± 1.2 µM

PALS1 PDZ (from UniProt Q8N3R9)
Kd [2]: 130 µM | Kd [3]: 40 µM

SRVPDLLV [SARS-CoV-1 PBM]
Kd [1]: 29.6 ± 2.3 µM

B1: PALS1 255-336, Q8N3R9 (protein)
chain: KIVRIEKARDIPLGATVRNEMDSVIISRIVKGGAAEKSGLLHEGDEVLEINGIEIRGKDVNEVFDLLSDMHGTLTFVLIPSQ
Kd [4]: 29.6 µM | Kd [5]: 22.8 µM
